Biological target: Staphylococcal enterotoxin G, wild type (Staphylococcus aureus (staphylococcal)) (UniProt P0A0L8)
Assay: SPR

Soluble mouse TCR β chain Vβ8.2 protein
Kd: 370 nM

— publication PMC7338481
